Experimental data taken from paper PMC10352329 (2023).
Residue numbers refer to the chain shown, from its start. In names and notes the source's numbering stands. Where no end group is shown, it is not given here.

How the values were obtained:
[1] = target: T1, human p300BRP (residues 1048–1282), wild type (human, UniProt Q09472 1048-1282, fluorescently labeled with a His tag Labeling Kit (microscale thermophoresis only)); experiment: ITC
T1 chain: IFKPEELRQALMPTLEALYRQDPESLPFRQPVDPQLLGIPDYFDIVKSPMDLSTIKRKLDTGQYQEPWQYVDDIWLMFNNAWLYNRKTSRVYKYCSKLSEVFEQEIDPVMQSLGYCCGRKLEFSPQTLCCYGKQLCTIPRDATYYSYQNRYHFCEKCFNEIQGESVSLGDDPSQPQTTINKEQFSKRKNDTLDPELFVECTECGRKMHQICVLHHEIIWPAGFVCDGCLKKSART

[2] = target: 180-bp unmodified nucleosome (human, UniProt P04908 1-130; P68431 1-136; P62805 1-103); experiment: MST
[3] = target: N-terminal bromodomain of human BRD4 (residues 44–168) (human, UniProt O60885 44-168); experiment: ITC

Which Kd [1] does the source give for PAPKK(Ac)GSK(Ac)KAVTK [di-acetylated H2B peptide K12ac/K15ac] here?
The Kd was greater than 500 µM.

B1: human p300BRP (residues 1048–1282), 4A-substituted mutant (R1133A, K1134A, R1137A, K1140A) (domain or fragment)
chain: T1 chain with R86A, K87A, R90A, K93A
modifications: fluorescently labeled with a His tag Labeling Kit (microscale thermophoresis)
How did the EC50 [2] turn out when B1 was run?
The EC50 was 0.0073 µM.

How did the Kd [3] turn out when KAVTK(Ac)AQK(Ac)KDGK [di-acetylated H2B peptide K20ac/K23ac] was run?
Its Kd is greater than 500 µM.
